This note sets out measurements from paper PMC11214414.

Experiment in all cases: EMSA
In general terms: In EMSA bound probe runs differently from free probe, usually more slowly.

Data set [1] deals with T1, HsASCC1 WT (Homo sapiens, UniProt Q8N9N2-2).
Another data set addresses HsASCC1 GDDG mutant (Homo sapiens, UniProt Q8N9N2-2 1-357, K76D;R77D).
Data set [2] deals with T1, HsASCC1 WT. The source holds these as a separate data set.

Read-outs that look alike come from different tables or passages of the source.

Regarding TTTTCGCGTTTT (ssDNA) [CGCG DNA], the binding result with HsASCC1 WT [1] was “no binding”.
On to UUUUCGCGUUUU (ssRNA) [CGCG RNA], for which the values for the binding result in the data set with HsASCC1 GDDG mutant and in the data set with HsASCC1 WT [2] were “no binding” and “binds”, respectively.
